According to the RNAGym collection of RNA variant scans (doi:10.7554/elife.80360):

B1: HDV Ribozyme (parent)
chain: GGCCGGCAUGGUCCCAGCCUCCUCGCUGGCGCCGGCUGGGCAACAUUCCGAGGGGACCGUCCCCUCGGUAAUGGCGAAUGGGACCCA

Variants of: B1
Assay: self-cleavage, relative activity (ratio to wild type); higher = more cleavage; co-transcriptional

Variant	self-cleavage
C30G U46A	0.0906
C30G U46G	0.0361
G31A A42G	0.116
G31A A42U	0.107
G31A A42C	0.102
G31A A83C	0.0811
G31A A83U	0.178
G31A A83G	0.228
C30G G55U	0.0225
C30G G55A	0.0852
C32G C58G	0.0773
C32G C58U	0.0234
G31C G76U	0.463
G31A C49G	0.34
C30U C66A	0.684
C30A A56C	0.875
C30G C32G	0.0627
C30G C32U	0.113
C30U G55A	0.691
G31U U79C	0.107
C32G C57A	0.106

Variant	self-cleavage
G29U G80U	0.0885
G29U G80C	0.0504
G31U A71C	0.0369
G31U A71G	0.271
G31C C36G	0
G31C C36A	0.0277
C30A C44U	0.132
C32G C75A	0.154
C32A U46G	0.138
C32A U46C	0.128
C30U G68U	0.594
C30G C66G	0.0326
C32A A71C	0
C32A U79G	0.133
C32A U79C	0.0733
C32A U65G	0.122
C30A G35C	0.0678
C30A G35U	0.166
G31C G67A	0.402
C32G G67C	0.149
G31A C64G	0.408

Variant	self-cleavage
G31A C64U	0.409
C32G A43G	0.0489
G31C C61U	0.262
G29U G54C	0.0282
G29U G54A	0.189
G31A A45G	0.422
C30U G35A	0.136
G31C G53C	0.332
G31U G35A	0.17
G31U G81U	0.23
G31C A43G	0.104
C30A C62G	0.321
G29U U65A	0.175
G31U G59C	0.57
G31U G50C	0.237
G31C A71U	0.172
G31C A71C	0.0475
G31C A71G	0.253
G31U U47G	0.32
C30G G74U	0.128
C30G G74C	0.108

Variant	self-cleavage
C30G C33U	0
G31C C62G	0.166
G31C C62A	0.181
G31C G68A	0.372
C30U C32U	0.7
C30A C61U	0.601
C30A C61G	0.583
G29U G74U	0.0963
G29U G74A	0.0978
C30G A71G	0.0339
C30G A45U	0.107
G29U G82A	0.0282
C30A C84G	0
C30A C48A	0.635
C32G G80C	0
C30G G50C	0.157
G31A C36U	0.241
C32G G35U	0.0583
C32G G35C	0.0386
G29U G68A	0.0886
G29U G68U	0.135
